Assay results from patent US20050037448A1.

Tests used:
human proinsulin (human) [1] = target: human proinsulin (human) (UniProt P01308); assay: sandwich immunoenzymatic C-peptide assay: PEP001 beads, goat polyclonal anti-C-peptide-alkaline phosphatase; competitor BC9B6 20 µg/ml
des-31,32-proinsulin [2] = target: des-31,32-proinsulin (UniProt P01308); assay: as above
des-64,65-proinsulin [3] = target: des-64,65-proinsulin (UniProt P01308); assay: as above
human proinsulin (human) [4] = target: human proinsulin (human) (UniProt P01308); assay: sandwich immunoenzymatic C-peptide assay: PEP001 beads, goat polyclonal anti-C-peptide-alkaline phosphatase; no AC1D4
des-31,32-proinsulin [5] = target: des-31,32-proinsulin (UniProt P01308); assay: as above
des-64,65-proinsulin [6] = target: des-64,65-proinsulin (UniProt P01308); assay: as above
des-64,65-proinsulin [7] = target: des-64,65-proinsulin (UniProt P01308); assay: competitive RIA, PEP001-coated tubes, 125I-Tyr-C-peptide; serum E1 overloaded with 0.67 pmol/ml des-64,65-proinsulin; no AC1D4

**Q.** How did the percentage of cross reaction (human proinsulin (human) [1]) turn out when “PEP001 anti-C-peptide monoclonal antibody” was run?
**A.** Its percentage of cross reaction is 8%.

**Q.** What about the percentage of cross reaction (des-31,32-proinsulin [2]) of the same substance?
**A.** The percentage of cross reaction was 115%.

**Q.** What about the percentage of cross reaction (des-64,65-proinsulin [3]) of the same substance?
**A.** Its percentage of cross reaction is 8%.

**Q.** And the percentage of cross reaction (human proinsulin (human) [4])?
**A.** The percentage of cross reaction was 92%.

**Q.** What about the percentage of cross reaction (des-31,32-proinsulin [5]) of the same substance?
**A.** Its percentage of cross reaction is 108%.

**Q.** What about the percentage of cross reaction (des-64,65-proinsulin [6]) of the same substance?
**A.** The percentage of cross reaction was 94%.

**Q.** What about the Increase after overload (%) (des-64,65-proinsulin [7]) of the same substance?
**A.** Its Increase after overload (%) is 49%.
